Test results taken from article PMC4783143.

Columns and labels:
Test in all cases: NMR titration
Cx40CT (S251-V355) = molecular target: Cx40CT (S251-V355)
Cx43CT (S255-I382) = Cx43CT (S255-I382) (UniProt P08050)
Cx45CT (K265-I396) = Cx45CT (K265-I396) (UniProt P28229)
UniProt P28229, sequence (P28229 265-396): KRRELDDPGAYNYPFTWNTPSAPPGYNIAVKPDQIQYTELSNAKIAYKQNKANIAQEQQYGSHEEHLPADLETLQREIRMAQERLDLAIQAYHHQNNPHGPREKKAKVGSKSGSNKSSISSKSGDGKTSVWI

UniProt P08050, sequence (P08050 255-382): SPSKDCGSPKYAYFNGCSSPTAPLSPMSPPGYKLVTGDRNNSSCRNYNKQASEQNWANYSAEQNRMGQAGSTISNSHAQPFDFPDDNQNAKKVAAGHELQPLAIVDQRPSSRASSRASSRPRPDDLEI

Kd (Cx40CT (S251-V355)): 600 µM
Kd (Cx43CT (S255-I382)): 278 µM
Kd (Cx45CT (K265-I396)): 286 µM
Substance: UBA domain of CIP75 (M549-S596) (from UniProt Q99NB8 549-596) (domain or fragment)
